Measurements published in article PMC6414199, “Bim escapes displacement by BH3-mimetic anti-cancer drugs by double-bolt locking both Bcl-XL and Bcl-2” (eLife, 2019).
Substitutions are numbered along the chain they refer to. Names may count otherwise.

B1: Venus-Bad, Q92934 1-168 (natural protein)
chain: MFQIPEFEPSEQEDSSSAERGLGPSPAGDGPSGSGKHHRQAPGLLWDASHQQEQPTSSSHHGGAGAVEIRSRHSSYPAGTEDDEGMGEEPSPFRGRSRSAPPNLWAAQRYGRELRRMSDEFVDSFKKGLPRPKSAGTATQMRQSSSWTRVFQSWWDRNLGRGSSAPSQ
B2: BimL single-cysteine mutant 41C, Alexa568-labelled I188E (protein)
chain: MAKQPSDVSSECDREGGQLQPAERPPQLRPGAPTSLQTEPCDRSPAPMSCDKSTQTPSPPCQAFNHYLSAMASIRQSQEEPEDLRPEIRIAQELRRIGDEFNETYTRRVFANDYREAEDHPQMVILQLLRFEFRLVWRRH
B3: BimL single-cysteine mutant 41C, Alexa568-labelled I181E (protein)
chain: B2 chain with I125E, E132I

Columns and labels:
[1] = molecular target: mCerulean3-Bcl-2 (human), P10415; test: FRET or BRET; FLIM-FRET in live MCF-7 cells: mCer3-Bcl-XL or mCer3-Bcl-2 stably expressed (donor), Venus-BH3 protein transiently expressed (acceptor); binding curves of FLIM-FRET efficiency against the Venus:mCer3 intensity ratio, 25 C; untreated, DMSO, 20 uM ABT-263 (18-24 h) or 1.25-20 uM A-1155463, A-1331852, ABT-263; R values interpolated at ratio 0.5 (Bcl-XL) or 0.25 (Bcl-2), ^VBad4E signal subtracted; details: remark: other sources report otherwise
[2] = molecular target: mCerulean3-Bcl-XL (human), Q07817; test: as above; details: remark: other sources report otherwise
[3] = molecular target: Bcl-XL single-cysteine mutant 152C, Alexa647-labelled, Q07817-1; test: FRET with purified proteins; details: chain shown with the change, highest ABT-263 point, x position est. about 3000 nM, read off a plot
[4] = in solution, without liposomes, parent: est. 68
[5] = with liposomes, parent: est. 99

Chain of mCerulean3-Bcl-XL (human), Q07817 (Q07817 whole entry): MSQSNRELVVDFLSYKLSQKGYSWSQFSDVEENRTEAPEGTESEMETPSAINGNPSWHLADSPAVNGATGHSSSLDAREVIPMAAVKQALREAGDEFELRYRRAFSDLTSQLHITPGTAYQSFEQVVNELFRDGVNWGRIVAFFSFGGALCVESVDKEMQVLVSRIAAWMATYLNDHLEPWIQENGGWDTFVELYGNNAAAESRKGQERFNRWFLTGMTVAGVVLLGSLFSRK
Chain of Bcl-XL single-cysteine mutant 152C, Alexa647-labelled, Q07817-1 (Q07817 whole entry, stated change not applied): as the sequence (Q07817 whole entry) above
Chain of mCerulean3-Bcl-2 (human), P10415 (P10415 whole entry): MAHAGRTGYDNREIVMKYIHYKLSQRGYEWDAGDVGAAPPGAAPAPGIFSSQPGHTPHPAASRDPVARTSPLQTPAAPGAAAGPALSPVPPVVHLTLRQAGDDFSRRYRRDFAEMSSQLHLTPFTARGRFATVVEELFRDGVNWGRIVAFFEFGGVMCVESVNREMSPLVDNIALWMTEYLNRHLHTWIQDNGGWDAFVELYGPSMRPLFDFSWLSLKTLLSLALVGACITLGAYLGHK

Binder | R (ABT-263), % of FRET signal left with 20 uM ABT-263 [1] [%] | IC50 of A-1155463 for disrupting the pair [2] [nM] | IC50 of A-1331852 for disrupting the pair [2] [nM] | IC50 of ABT-263 for disrupting the pair [2] [nM] | R (ABT-263), % of FRET signal left with 20 uM ABT-263 [2] [%] | R with A-1155463, % of FRET signal left [2] [%] | R with A-1331852, % of FRET signal left [2] [%] | response (% BH3 protein bound) [3, 4] | response (% BH3 protein bound) [3, 5]
B1 | 18.6 | < 1250 | < 1250 | > 10000 | 46.4 | 45 | 20 |  | 
B2 |  |  |  |  |  |  |  | 18 | 22
B3 |  |  |  |  |  |  |  | 14 | 24
